Reference: paper PMC11685794 (Nature Communications, 2024)

B1: CD163 SRCR 1-5 (residues 42-578) (domain or fragment)
chain: SSLGGTDKELRLVDGENKCSGRVEVKVQEEWGTVCNNGWSMEAVSVICNQLGCPTAIKAPGWANSSAGSGRIWMDHVSCRGNESALWDCKHDGWGKHSNCTHQQDAGVTCSDGSNLEMRLTRGGNMCSGRIEIKFQGRWGTVCDDNFNIDHASVICRQLECGSAVSFSGSSNFGEGSGPIWFDDLICNGNESALWNCKHQGWGKHNCDHAEDAGVICSKGADLSLRLVDGVTECSGRLEVRFQGEWGTICDDGWDSYDAAVACKQLGCPTAVTAIGRVNASKGFGHIWLDSVSCQGHEPAIWQCKHHEWGKHYCNHNEDAGVTCSDGSDLELRLRGGGSRCAGTVEVEIQRLLGKVCDRGWGLKEADVVCRQLGCGSALKTSYQVYSKIQATNTWLFLSSCNGNETSLWDCKNWQWGGLTCDHYEEAKITCSAHREPRLVGGDIPCSGRVEVKHGDTWGSICDSDFSLEAASVLCRELQCGTVVSILGGAHFGEGNGQIWAEEFQCEGHESHLSLCPVAPRPEGTCSHSRDVGVVCS

Key:
[1] = target: haptoglobin-hemoglobin complex, Hp(1-1)Hb (αβHb bound to dimeric Hp1-1) (human, UniProt P00738-2;P00738;P69905;P68871); assay: SPR
[2] = target: B1; assay: SPR

Kd [1] [µM]	Kd [2] [µM]	Binder
0.766	–	B1
–	43.8	hemoglobin (Hb) (complex) chain 1: not shown chain 2: not shown
